Experimental data published in PMC5700813, “A recombinant BBSome core complex and how it interacts with ciliary cargo” (eLife, 2017).
Where two headings read alike, the source gives them in different places. Ends that are not written are not given here. fluorescein = fluorescein, N-terminal fluorescent label

B4: BBS1 (aa1-430) (domain or fragment, human, UniProt Q8NFJ9-1 1-430, looked up)
chain: MAAASSSDSDACGAESNEANSKWLDAHYDPMANIHTFSACLALADLHGDGEYKLVVGDLGPGGQQPRLKVLKGPLVMTESPLPALPAAAATFLMEQHEPRTPALALASGPCVYVYKNLRPYFKFSLPQLPPNPLEQDLWNQAKEDRIDPLTLKEMLESIRETAEEPLSIQSLRFLQLELSEMEAFVNQHKSNSIKRQTVITTMTTLKKNLADEDAVSCLVLGTENKELLVLDPEAFTILAKMSLPSVPVFLEVSGQFDVEFRLAAACRNGNIYILRRDSKHPKYCIELSAQPVGLIRVHKVLVVGSTQDSLHGFTHKGKKLWTVQMPAAILTMNLLEQHSRGLQAVMAGLANGEVRIYRDKALLNVIHTPDAVTSLCFGRYGREDNTLIMTTRGGGLIIKILKRTAVFVEGGSEVGPPPAQAMKLNVPRK
notes: BBS1, human, residues 1-430; also called BBS1 ß-propeller domain; truncated BBS1 subunit; source: Hi5 insect cells (baculovirus), purified

Experiments:
[1] = molecular target: fluoresceine-labeled Smo (R546-L665) (human (from the printed UniProt accession)) (UniProt Q99835); assay: fluorescence polarisation; fluorescein-labelled peptide or Smo fragment (0.1–1 µM) titrated with core BBSome or BBS1 (aa1-430); quadratic binding fit
fluoresceine-labeled Smo (R546-L665) (human, sequence (Q99835 546-665): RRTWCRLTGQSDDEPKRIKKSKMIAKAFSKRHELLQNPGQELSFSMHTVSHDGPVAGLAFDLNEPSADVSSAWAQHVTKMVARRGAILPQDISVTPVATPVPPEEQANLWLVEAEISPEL

5HT6 CT (human) [2] = molecular target: T1, 5HT6 CT (human (from the printed UniProt accession)); assay: as above
T1 sequence (P50406 325-344): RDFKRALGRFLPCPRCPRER

SSTR3 CT4 (human) = molecular target: SSTR3 CT4 (human (from the printed UniProt accession)); assay: as above
SSTR3 CT7 (human) = molecular target: SSTR3 CT7 (human (from the printed UniProt accession)); assay: as above
SSTR3 CT5 (human) = molecular target: SSTR3 CT5 (human (from the printed UniProt accession)); assay: as above
GPR161 CT2 (human) = molecular target: GPR161 CT2 (human (from the printed UniProt accession)); assay: as above
GPR161 CT2 (human, sequence (Q8N6U8 489-510): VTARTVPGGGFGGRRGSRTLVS

Smo CT5 (human) = molecular target: Smo CT5 (human (from the printed UniProt accession)); assay: as above
SSTR3 CT6 (human) = molecular target: SSTR3 CT6 (human (from the printed UniProt accession)); assay: as above
Smo CT3 (human) = molecular target: Smo CT3 (human (from the printed UniProt accession)); assay: as above
Smo CT3 (human, sequence (Q99835 541-577): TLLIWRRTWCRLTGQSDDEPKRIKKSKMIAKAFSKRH

Smo CT8 (human) = molecular target: Smo CT8 (human (from the printed UniProt accession)); assay: as above
Smo CT1 (human) = molecular target: Smo CT1 (human (from the printed UniProt accession)); assay: as above
SSTR3 CT8 (human) = molecular target: SSTR3 CT8 (human (from the printed UniProt accession)); assay: as above
SSTR3 3ICL (human) = molecular target: SSTR3 3ICL (human (from the printed UniProt accession)); assay: as above
SSTR3 CT2 (human) = molecular target: SSTR3 CT2 (human (from the printed UniProt accession)); assay: as above
SSTR3 CT1 (human) = molecular target: SSTR3 CT1 (human (from the printed UniProt accession)); assay: as above
GPR161 CT1 (human) = molecular target: GPR161 CT1 (human (from the printed UniProt accession)); assay: as above
GPR161 CT1 (human, sequence (Q8N6U8 328-354): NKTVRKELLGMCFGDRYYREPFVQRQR

Smo CT6 (human) = molecular target: Smo CT6 (human (from the printed UniProt accession)); assay: as above
Smo CT2 (human) = molecular target: Smo CT2 (human (from the printed UniProt accession)); assay: as above
GPR161 3ICL (human) = molecular target: GPR161 3ICL (human (from the printed UniProt accession)); assay: as above
SSTR3 CT3 (human) = molecular target: SSTR3 CT3 (human (from the printed UniProt accession)); assay: as above
MCH 3ICL (human) = molecular target: MCH 3ICL (human (from the printed UniProt accession)); assay: as above
MCH 3ICL (human, sequence (peptide, as listed by the source): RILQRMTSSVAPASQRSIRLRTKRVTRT

NMU 3ICL1 (human) = molecular target: NMU 3ICL1 (human (from the printed UniProt accession)); assay: as above
NMU 3ICL1 (human, sequence (peptide, as listed by the source): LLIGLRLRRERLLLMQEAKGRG

SSTR3 CT9 (human) = molecular target: SSTR3 CT9 (human (from the printed UniProt accession)); assay: as above
Smo CT7 (human) = molecular target: Smo CT7 (human (from the printed UniProt accession)); assay: as above
NMU 3ICL2 (human) = molecular target: NMU 3ICL2 (human (from the printed UniProt accession)); assay: as above
NMU 3ICL2 (human, sequence (Q9HB89 271-294): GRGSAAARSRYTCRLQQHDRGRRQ

Smo CT4 (human) = molecular target: Smo CT4 (human (from the printed UniProt accession)); assay: as above
5HT6 CT (human) [3] = molecular target: T1, 5HT6 CT (human); assay: as above; remark: listed apart in the source
BBS1 (aa1-430) = molecular target: B4; assay: as above; details: both partners purified
[4] = molecular target: the molecule itself; assay: SEC; full length BBS9 at high concentrations; at lower concentrations the single peak shifts to lower molecular weight (fast equilibrium between monomer and dimer)
[5] = molecular target: the molecule itself; assay: SEC; samples purified by affinity chromatography and gel filtration; 2.5–10 µg of the peak fraction on a Superdex 200 5/20 column; elution volume against standard proteins
SSTR3 CT2 = molecular target: T2, SSTR3 CT2 (human (from the printed UniProt …, fluorescein on the N-terminus)); assay: fluorescence polarisation; fluorescein-labelled peptide or Smo fragment (0.1–1 µM) titrated with core BBSome or BBS1 (aa1-430); quadratic binding fit; details: both partners purified
T2 construct: SSTR3, three residues of the 7th transmembrane region and 21 of the C-terminus; limits worked out from the printed RRVR 333-336; source: synthetic peptide, bought: Proteogenix
T2 peptide: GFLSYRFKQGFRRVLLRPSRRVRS

6mer BBSome core complex (BBS1, 4, 5, 8, 9 and 18) (from UniProt Q8NFJ9-1 1-593; Q96RK4-1 1-519; Q8N3I7-1 1-341; Q8TAM2 1-541; Q3SYG4-1 1-887; A8MTZ0-1 1-92)
Kd [1]: 36.1 µM | Kd (5HT6 CT (human) [2]): 44.2 µM | Kd (SSTR3 CT4 (human)): 0.4 µM | Kd (SSTR3 CT7 (human)): 1 µM | Kd (SSTR3 CT5 (human)): 1.5 µM | Kd (GPR161 CT2 (human)): > 100 µM | Kd (Smo CT5 (human)): 9.7 µM | Kd (SSTR3 CT6 (human)): 4.5 µM | Kd (Smo CT3 (human)): 1.4 µM | Kd (Smo CT8 (human)): 6.8 µM | Kd (Smo CT1 (human)): 1.8 µM | Kd (SSTR3 CT8 (human)): 11 µM | Kd (SSTR3 3ICL (human)): 12.8 µM | Kd (SSTR3 CT2 (human)): 0.11 µM | Kd (SSTR3 CT1 (human)): 22.1 µM | Kd (GPR161 CT1 (human)): 67.4 µM | Kd (Smo CT6 (human)): 12.5 µM | Kd (Smo CT2 (human)): > 100 µM | Kd (GPR161 3ICL (human)): 6.3 µM | Kd (SSTR3 CT3 (human)): 1.1 µM | Kd (MCH 3ICL (human)): 68.8 µM | Kd (NMU 3ICL1 (human)): 18.1 µM | Kd (SSTR3 CT9 (human)): 4.7 µM | Kd (Smo CT7 (human)): 14.3 µM | Kd (NMU 3ICL2 (human)): > 100 µM | Kd (Smo CT4 (human)): 1.1 µM | Kd (5HT6 CT (human) [3]): > 50 µM

B1: SSTR3 3ICL (peptide)
peptide: fluorescein-VKVRSAGRRVWAPSCQRRRRSERRVTRM
notes: SSTR3, third intracellular loop; source: synthetic peptide, bought: Proteogenix
binding result (BBS1 (aa1-430)): binds

B2: BBS9 (full length) (natural protein, human, UniProt Q3SYG4-1 1-887, looked up)
chain: MSLFKARDWWSTILGDKEEFDQGCLCLANVDNSGNGQDKIIVGSFMGYLRIFSPHPAKTGDGAQAEDLLLEVDLRDPVLQVEVGKFVSGTEMLHLAVLHSRKLCVYSVSGTLGNVEHGNQCQMKLMYEHNLQRTACNMTYGSFGGVKGRDLICIQSMDGMLMVFEQESYAFGRFLPGFLLPGPLAYSSRTDSFLTVSSCQQVESYKYQVLAFATDADKRQETEQQKLGSGKRLVVDWTLNIGEQALDICIVSFNQSASSVFVLGERNFFCLKDNGQIRFMKKLDWSPSCFLPYCSVSEGTINTLIGNHNNMLHIYQDVTLKWATQLPHIPVAVRVGCLHDLKGVIVTLSDDGHLQCSYLGTDPSLFQAPNVQSRELNYDELDVEMKELQKIIKDVNKSQGVWPMTEREDDLNVSVVVSPNFDSVSQATDVEVGTDLVPSVTVKVTLQNRVILQKAKLSVYVQPPLELTCDQFTFEFMTPDLTRTVSFSVYLKRSYTPSELEGNAVVSYSRPTDRNPDGIPRVIQCKFRLPLKLICLPGQPSKTASHKITIDTNKSPVSLLSLFPGFASQSDDDQVNVMGFHFLGGARITVLASKTSQRYRIQSEQFEDLWLITNELILRLQEYFEKQGVKDFACSFSGSIPLQEYFELIDHHFELRINGEKLEELLSERAVQFRAIQRRLLARFKDKTPAPLQHLDTLLDGTYKQVIALADAVEENQGNLFQSFTRLKSATHLVILLIALWQKLSADQVAILEAAFLPLQEDTQELGWEETVDAAISHLLKTCLSKSSKEQALNLNSQLNIPKDTSQLKKHITLLCDRLSKGGRLCLSTDAAAPQTMVMPGGCTTIPESDLEERSVEQDSTELFTNHRHLTAETPRPEVSPLQGVSE
notes: BBS9, human, as NM_198428.2 (887 residues by the printed range 363-887); source: Hi5 insect cells (baculovirus); alone, purified, or co-expressed with other subunits
stoichiometry N [4]: 2

B3: BBS9 C-terminal part (residues 363–887) (domain or fragment, human, UniProt Q3SYG4-1 363-887, looked up)
chain: PSLFQAPNVQSRELNYDELDVEMKELQKIIKDVNKSQGVWPMTEREDDLNVSVVVSPNFDSVSQATDVEVGTDLVPSVTVKVTLQNRVILQKAKLSVYVQPPLELTCDQFTFEFMTPDLTRTVSFSVYLKRSYTPSELEGNAVVSYSRPTDRNPDGIPRVIQCKFRLPLKLICLPGQPSKTASHKITIDTNKSPVSLLSLFPGFASQSDDDQVNVMGFHFLGGARITVLASKTSQRYRIQSEQFEDLWLITNELILRLQEYFEKQGVKDFACSFSGSIPLQEYFELIDHHFELRINGEKLEELLSERAVQFRAIQRRLLARFKDKTPAPLQHLDTLLDGTYKQVIALADAVEENQGNLFQSFTRLKSATHLVILLIALWQKLSADQVAILEAAFLPLQEDTQELGWEETVDAAISHLLKTCLSKSSKEQALNLNSQLNIPKDTSQLKKHITLLCDRLSKGGRLCLSTDAAAPQTMVMPGGCTTIPESDLEERSVEQDSTELFTNHRHLTAETPRPEVSPLQGVSE
notes: BBS9, human, residues 363-887 (GAE, platform and alpha-helical domains); also called C-terminal domain of BBS9; C-terminal appendage part; source: Hi5 insect cells (baculovirus); alone, purified, or co-expressed with BBS1
stoichiometry N [5]: 2

B4
fold lower affinity than to the core BBSome (SSTR3 CT2): ~100 fold
